Series [1] relates to HeLa Kyoto. The experiment in a line: melting temperature (median over replicates), in situ; higher = more thermally stable.
The test system of series [2] is HeLa Kyoto. Description: solubility change mitosis vs G1/S (difference of NP-40 vs SDS log2 ratios) (log2 ratio difference); higher = more soluble in mitosis.
In series [3] the test system is HeLa Kyoto. Description: solubility in G1/S (NP-40 vs SDS abundance) (log2 ratio); higher = more soluble. The following applies: cell cycle stage: G1/S.
Series [4] relates to HeLa Kyoto. Description: thermal stability score vs G1/S (z-score of summed log2 fold changes over temperatures); higher = more thermally stable than in G1/S.
Where [5] appears, read: cell cycle stage: early G1 (4.5 h after nocodazole release).

This note sets out measurements from the supplement of paper PMC5998384.
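For melting temperature (median over replicates), in situ in this document: HeLa Kyoto cells synchronized by double thymidine or nocodazole block, proteins quantified by TMT10plex mass spectrometry, three independent biological replicates.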
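For solubility change mitosis vs G1/S (difference of NP-40 vs SDS log2 ratios) in this document: synchronized HeLa Kyoto cells (double thymidine block for G1/S, nocodazole release for mitosis), protein amounts in NP-40 versus SDS lysates quantified by mass spectrometry, three biological replicates.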
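For solubility in G1/S (NP-40 vs SDS abundance) in this document: HeLa Kyoto cells arrested at G1/S by double thymidine block, proteins quantified by TMT10plex mass spectrometry in mild NP-40 versus SDS extracts, three biological replicates.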
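For thermal stability score vs G1/S (z-score of summed log2 fold changes over temperatures) in this document: synchronized HeLa Kyoto cells, proteins quantified by TMT10plex mass spectrometry, three biological replicates, mitosis taken 0.5 h after nocodazole release, G1/S directly after double thymidine block.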

For the sequence “MPNQGEDCYFFFYSTCTKGDSCPFRHCEAAIGNETVCTLWQEGRCFRQVCRFRHMEIDKKRSEIPCYWENQPTGCQKLNCAFHHNRGRYVDGLFLPPSKTVLPTVPESPEEEVKASQLSVQQNKLSVQSNPSPQLRSVMKVESSENVPSPTHPPVVINAADDDEDDDDQFSEEGDETKTPTLQPTPEVHNGLRVTSVRKPAVNIKQGECLNFGIKTLEEIKSKKMKEKSKKQGEGSSGVSSLLLHPEPVPGPEKENVRTVVRTVTLSTKQGEEPLVRLSLTERLGKRKFSAGGDSDPPLKRSLAQRLGKKVEAPETNIDKTPKKAQVSKSLKERLGMSADPDNEDATDKVNKVGEIHVKTLEEILLERASQKRGELQTKLKTEGPSKTDDSTSGARSSSTIRIKTFSEVLAEKKHRQQEAERQKSKKDTTCIKLKIDSEIKKTVVLPPIVASRGQSEEPAGKTKSMQEVHIKTLEEIKLEKALRVQQSSESSTSSPSQHEATPGARRLLRITKRTGMKEEKNLQEGNEVDSQSSIRTEAKEASGETTGVDITKIQVKRCETMREKHMQKQQEREKSVLTPLRGDVASCNTQVAEKPVLTAVPGITRHLTKRLPTKSSQKVEVETSGIGDSLLNVKCAAQTLEKRGKAKPKVNVKPSVVKVVSSPKLAPKRKAVEMHAAVIAAVKPLSSSSVLQEPPAKKAAVAVVPLVSEDKSVTVPEAENPRDSLVLPPTQSSSDSSPPEVSGPSSSQMSMKTRRLSSASTGKPPLSVEDDFEKLIWEISGGKLEAEIDLDPGKDEDDLLLELSEMIDS [ZC3H11A]”, the melting temperature in the series with HeLa Kyoto [1] (cell cycle stage: G1/S) turned out to be 45.8 °C; in the series with HeLa Kyoto [1] (cell cycle stage: mitosis), 48.6 °C. For the same sequence, the “solubility change mitosis (log2)” value in the series with HeLa Kyoto [2] turned out to be 0.559. Moreover, in the series with HeLa Kyoto [3], the “solubility in G1/S (log2)” value was -0.583. In addition, the thermal stability score is 2.36 with HeLa Kyoto [4] (setting [5]) and 7.44 in the series with HeLa Kyoto [4] (cell cycle stage: mitosis).
Take “MPPPRTREGRDRRDHHRAPSEEEALEKWDWNCPETRRLLEDAFFREEDYIRQGSEECQKFWTFFERLQRFQNLKTSRKEEKDPGQPKHSIPALADLPRTYDPRYRINLSVLGPATRGSQGLGRHLPAERVAEFRRALLHYLDFGQKQAFGRLAKLQRERAALPIAQYGNRILQTLKEHQVVVVAGDTGCGKSTQVPQYLLAAGFSHVACTQPRRIACISLAKRVGFESLSQYGSQVGYQIRFESTRSAATKIVFLTVGLLLRQIQREPSLPQYEVLIVDEVHERHLHNDFLLGVLQRLLPTRPDLKVILMSATINISLFSSYFSNAPVVQVPGRLFPITVVYQPQEAEPTTSKSEKLDPRPFLRVLESIDHKYPPEERGDLLVFLSGMAEISAVLEAAQTYASHTQRWVVLPLHSALSVADQDKVFDVAPPGVRKCILSTNIAETSVTIDGIRFVVDSGKVKEMSYDPQAKLQRLQEFWISQASAEQRKGRAGRTGPGVCFRLYAESDYDAFAPYPVPEIRRVALDSLVLQMKSMSVGDPRTFPFIEPPPPASLETAILYLRDQGALDSSEALTPIGSLLAQLPVDVVIGKMLILGSMFSLVEPVLTIAAALSVQSPFTRSAQSSPECAAARRPLESDQGDPFTLFNVFNAWVQVKSERSRNSRKWCRRRGIEEHRLYEMANLRRQFKELLEDHGLLAGAQAAQVGDSYSRLQQRRERRALHQLKRQHEEGAGRRRKVLRLQEEQDGGSSDEDRAGPAPPGASDGVDIQDVKFKLRHDLAQLQAAASSAQDLSREQLALLKLVLGRGLYPQLAVPDAFNSSRKDSDQIFHTQAKQGAVLHPTCVFAGSPEVLHAQELEASNCDGSRDDKDKMSSKHQLLSFVSLLETNKPYLVNCVRIPALQSLLLFSRSLDTNGDCSRLVADGWLELQLADSESAIRLLAASLRLRARWESALDRQLAHQAQQQLEEEEEDTPVSPKEVATLSKELLQFTASKIPYSLRRLTGLEVQNMYVGPQTIPATPHLPGLFGSSTLSPHPTKGGYAVTDFLTYNCLTNDTDLYSDCLRTFWTCPHCGLHAPLTPLERIAHENTCPQAPQDGPPGAEEAALETLQKTSVLQRPYHCEACGKDFLFTPTEVLRHRKQHV [DHX34]”: the figures for the melting temperature with HeLa Kyoto [1] (cell cycle stage: G1/S) and with HeLa Kyoto [1] (cell cycle stage: mitosis) were 50.1 °C and 49.8 °C, respectively. In the series with HeLa Kyoto [2], the “solubility change mitosis (log2)” value is -0.0525. Also, the “solubility in G1/S (log2)” value in the series on HeLa Kyoto [3] was -0.242. Moreover, the thermal stability score with HeLa Kyoto [4] (setting [5]) was found to be 0.188; with HeLa Kyoto [4] (cell cycle stage: mitosis) it was 0.311.
Consider “MPQYQTWEEFSRAAEKLYLADPMKARVVLKYRHSDGNLCVKVTDDLVCLVYKTDQAQDVKKIEKFHSQLMRLMVAKEARNVTMETE [SRP9]”, for which the melting temperature in the series with HeLa Kyoto [1] (cell cycle stage: G1/S) worked out at 53.5 °C; in the series on HeLa Kyoto [1] (cell cycle stage: mitosis), 52.1 °C. In addition, in the series on HeLa Kyoto [2], the “solubility change mitosis (log2)” value amounted to 0.394. Further, the “solubility in G1/S (log2)” value in the series on HeLa Kyoto [3] was -0.607. Further, the thermal stability score in the series on HeLa Kyoto [4] (setting [5]) was -2.84; with HeLa Kyoto [4] (cell cycle stage: mitosis), -5.71.
For “MPRARKGNTLRKGGQRRGGGARSSAQADSGSSDDEAASEARSTASECPSLLSTTAEDSLGGDVVDEQGQQEDLEEKLKEYVDCLTDKSAKTRQGALESLRLALASRLLPDFLLERRLTLADALEKCLKKGKGEEQALAAAVLGLLCVQLGPGPKGEELFHSLQPLLVSVLSDSTASPAARLHCASALGLGCYVAAADIQDLVSCLACLESVFSRFYGLGGSSTSPVVPASLHGLLSAALQAWALLLTICPSTQISHILDRQLPRLPQLLSSESVNLRIAAGETIALLFELARDLEEEFVYEDMEALCSVLRTLATDSNKYRAKADRRRQRSTFRAVLHSVEGGECEEEIVRFGFEVLYMDSWARHRIYAAFKEVLGSGMHHHLQNNELLRDIFGLGPVLLLDATALKACKVPRFEKHLYNAAAFKARTKARSRVRDKRADIL [IFRD2]”, the melting temperature came out at 56.3 °C in the series with HeLa Kyoto [1] (cell cycle stage: G1/S) and 54.5 °C with HeLa Kyoto [1] (cell cycle stage: mitosis). Further, the “solubility change mitosis (log2)” value in the series on HeLa Kyoto [2] stood at 0.211. In addition, the “solubility in G1/S (log2)” value in the series on HeLa Kyoto [3] is -0.734. Also, the thermal stability score is -2.6 in the series with HeLa Kyoto [4] (setting [5]) and -1.01 with HeLa Kyoto [4] (cell cycle stage: mitosis).
Regarding “MPRDNMASLIQRIARQACLTFRGSGGGRGASDRDAASGPEAPMQPGFPENLSKLKSLLTQLRAEDLNIAPRKATLQPLPPNLPPVTYMHIYETDGFSLGVFLLKSGTSIPLHDHPGMHGMLKVLYGTVRISCMDKLDAGGGQRPRALPPEQQFEPPLQPREREAVRPGVLRSRAEYTEASGPCILTPHRDNLHQIDAVEGPAAFLDILAPPYDPDDGRDCHYYRVLEPVRPKEASSSACDLPREVWLLETPQADDFWCEGEPYPGPKVFP [ADO]”, the melting temperature in the series with HeLa Kyoto [1] (cell cycle stage: G1/S) was 54.1 °C; with HeLa Kyoto [1] (cell cycle stage: mitosis) it was 53.7 °C. Moreover, in the series on HeLa Kyoto [2], the “solubility change mitosis (log2)” value is 0.0512. Also, the “solubility in G1/S (log2)” value in the series with HeLa Kyoto [3] came to 0.474. Besides, the thermal stability score in the series with HeLa Kyoto [4] (setting [5]) was -2.72; in the series on HeLa Kyoto [4] (cell cycle stage: mitosis), -3.58.
